Each block holds one molecule with its values, some of them ahead of it.
Key:
[1] = target: T1, G9a and GLP (Homo sapiens, UniProt Q96KQ7+Q9H9B1); assay: Triple SILAC pull-down after UNC0638 treatment of 293T cells, DMSO/UNC0638 ratio of protein captured by 3×MBT; format: cell-based; design: endogenous in cells; host or cells: HEK 293T; conditions: all values in log base 2; for Relative to UNC0638 UNC Heavy / Relative to UNC0638 UNC Light: SILAC ratio DMSO relative to UNC0638, pull-down with 3xMBT; for Relative to UNC0638 UNC Heavy: UNC0638 in heavy SILAC media; for Relative to UNC0638 UNC Light: UNC0638 in light SILAC media; for Relative to UNC0638 Average: average of UNC Light and UNC Heavy experiments;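 on all read-outs here: mass spectrometry (Q-Exactive) SILAC quantitation, DMSO/UNC0638 ratio computed after subtracting 3×MBTD355N mutant pull-down background, only proteins with at least twofold 3×MBT over mutant signal considered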
T1 sequence (Q96KQ7 2-1210 limits assumed): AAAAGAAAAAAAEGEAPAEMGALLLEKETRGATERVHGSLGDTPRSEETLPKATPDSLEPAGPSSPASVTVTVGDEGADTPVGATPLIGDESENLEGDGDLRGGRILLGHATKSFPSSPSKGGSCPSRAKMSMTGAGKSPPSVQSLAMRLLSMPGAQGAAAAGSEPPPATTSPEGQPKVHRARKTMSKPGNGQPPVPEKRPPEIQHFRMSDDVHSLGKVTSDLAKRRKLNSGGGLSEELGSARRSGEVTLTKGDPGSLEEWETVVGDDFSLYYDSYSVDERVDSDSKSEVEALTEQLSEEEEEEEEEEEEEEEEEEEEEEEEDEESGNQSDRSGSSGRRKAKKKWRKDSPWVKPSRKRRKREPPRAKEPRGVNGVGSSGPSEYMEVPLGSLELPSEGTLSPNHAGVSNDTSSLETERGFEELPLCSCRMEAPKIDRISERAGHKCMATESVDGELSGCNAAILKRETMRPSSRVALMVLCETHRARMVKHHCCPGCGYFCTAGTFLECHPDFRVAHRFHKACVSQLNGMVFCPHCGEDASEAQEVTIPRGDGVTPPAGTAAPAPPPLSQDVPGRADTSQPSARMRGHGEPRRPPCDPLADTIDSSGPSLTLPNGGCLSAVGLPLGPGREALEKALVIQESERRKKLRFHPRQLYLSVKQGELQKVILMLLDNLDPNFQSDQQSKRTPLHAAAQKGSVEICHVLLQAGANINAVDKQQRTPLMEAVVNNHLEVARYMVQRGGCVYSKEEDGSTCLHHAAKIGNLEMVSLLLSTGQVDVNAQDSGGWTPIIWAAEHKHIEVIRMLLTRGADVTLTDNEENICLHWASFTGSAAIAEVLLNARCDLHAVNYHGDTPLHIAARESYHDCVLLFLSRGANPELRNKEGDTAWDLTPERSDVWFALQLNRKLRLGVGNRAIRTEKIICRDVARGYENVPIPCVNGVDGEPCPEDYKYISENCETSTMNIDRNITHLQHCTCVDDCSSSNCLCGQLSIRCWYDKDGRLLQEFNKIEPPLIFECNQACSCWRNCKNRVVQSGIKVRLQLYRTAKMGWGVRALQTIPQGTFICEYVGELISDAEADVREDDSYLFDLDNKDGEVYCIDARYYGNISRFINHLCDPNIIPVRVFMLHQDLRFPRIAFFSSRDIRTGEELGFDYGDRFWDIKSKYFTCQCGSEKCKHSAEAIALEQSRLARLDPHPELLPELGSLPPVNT
T1 sequence (Q9H9B1 2-1298 limits assumed): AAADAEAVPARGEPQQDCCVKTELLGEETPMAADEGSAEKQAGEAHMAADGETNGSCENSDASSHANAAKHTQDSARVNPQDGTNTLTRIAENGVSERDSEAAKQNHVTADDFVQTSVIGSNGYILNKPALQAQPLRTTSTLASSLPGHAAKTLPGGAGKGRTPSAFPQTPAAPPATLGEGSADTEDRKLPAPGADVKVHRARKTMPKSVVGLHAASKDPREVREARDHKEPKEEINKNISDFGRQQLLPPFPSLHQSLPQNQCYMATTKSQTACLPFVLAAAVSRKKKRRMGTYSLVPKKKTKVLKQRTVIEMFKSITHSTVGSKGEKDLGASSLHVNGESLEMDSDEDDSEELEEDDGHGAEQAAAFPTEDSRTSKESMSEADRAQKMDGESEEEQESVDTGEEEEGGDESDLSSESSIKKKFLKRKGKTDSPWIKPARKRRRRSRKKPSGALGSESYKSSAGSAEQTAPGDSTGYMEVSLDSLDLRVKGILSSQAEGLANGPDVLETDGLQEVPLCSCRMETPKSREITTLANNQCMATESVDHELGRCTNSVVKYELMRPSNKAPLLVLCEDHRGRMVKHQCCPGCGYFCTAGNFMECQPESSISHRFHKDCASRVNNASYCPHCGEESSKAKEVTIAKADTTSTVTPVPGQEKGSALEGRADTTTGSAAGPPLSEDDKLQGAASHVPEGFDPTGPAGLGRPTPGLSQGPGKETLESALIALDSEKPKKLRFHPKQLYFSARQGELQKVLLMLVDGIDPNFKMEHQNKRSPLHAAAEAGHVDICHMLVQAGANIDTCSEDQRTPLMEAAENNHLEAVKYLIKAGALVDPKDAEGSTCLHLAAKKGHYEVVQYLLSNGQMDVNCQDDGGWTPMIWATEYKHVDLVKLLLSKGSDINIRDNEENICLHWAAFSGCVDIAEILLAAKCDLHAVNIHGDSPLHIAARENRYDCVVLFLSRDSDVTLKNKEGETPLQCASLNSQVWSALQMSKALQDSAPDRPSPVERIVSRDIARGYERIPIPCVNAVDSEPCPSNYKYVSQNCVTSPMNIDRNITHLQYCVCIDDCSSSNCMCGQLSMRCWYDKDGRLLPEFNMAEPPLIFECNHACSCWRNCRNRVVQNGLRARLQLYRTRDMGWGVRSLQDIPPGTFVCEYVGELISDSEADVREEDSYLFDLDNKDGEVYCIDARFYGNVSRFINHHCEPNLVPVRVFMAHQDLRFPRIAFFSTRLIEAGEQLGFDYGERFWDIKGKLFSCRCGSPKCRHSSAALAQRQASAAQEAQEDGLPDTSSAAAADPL

[2] = test system: 3×MBT domain of L3MBTL1; assay: Triple SILAC pull-down, 3xMBT/3xMBTD355N ratio (cytoplasmic, nuclear and chromatin fractions of 293T cells); format: binding, human; conditions: SILAC ratio 3xMBT vs 3xMBTD355N pull-down, 293T cells, all values in log base 2; for 3xMBT/D355N UNC Heavy: experiment with UNC0638 in heavy SILAC media; for 3xMBT/D355N UNC Light: experiment with UNC0638 in light SILAC media;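 on all read-outs here: proteins quantified with MaxQuant, requiring at least two unique peptides and quantification in both label directions, normalized to the mean of proteins from a digested loading control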

- Relative to UNC0638 UNC Heavy [1]: 0.71 log base 2
- Relative to UNC0638 UNC Light [1]: −0.94 log base 2
- Relative to UNC0638 Average [1]: −0.12 log base 2
B1: SHKBP1 (protein, UniProt Q8TBC3 2-707, looked up)
SH3KBP1-binding protein 1: AAAATAAEGVPSRGPPGEVIHLNVGGKRFSTSRQTLTWIPDSFFSSLLSGRISTLKDETGAIFIDRDPTVFAPILNFLRTKELDPRGVHGSSLLHEAQFYGLTPLVRRLQLREELDRSSCGNVLFNGYLPPPVFPVKRRNRHSLVGPQQLGGRPAPVRRSNTMPPNLGNAGLLGRMLDEKTPPSPSGQPEEPGMVRLVCGHHNWIAVAYTQFLVCYRLKEASGWQLVFSSPRLDWPIERLALTARVHGGALGEHDKMVAAATGSEILLWALQAEGGGSEIGVFHLGVPVEALFFVGNQLIATSHTGRIGVWNAVTKHWQVQEVQPITSYDAAGSFLLLGCNNGSIYYVDVQKFPLRMKDNDLLVSELYRDPAEDGVTALSVYLTPKTSDSGNWIEIAYGTSSGGVRVIVQHPETVGSGPQLFQTFTVHRSPVTKIMLSEKHLISVCADNNHVRTWSVTRFRGMISTQPGSTPLASFKILALESADGHGGCSAGNDIGPYGERDDQQVFIQKVVPSASQLFVRLSSTGQRVCSVRSVDGSPTTAFTVLECEGSRRLGSRPRRYLLTGQANGSLAMWDLTTAMDGLGQAPAGGLTEQELMEQLEHCELAPPAPSAPSWGCLPSPSPRISLTSLHSASSNTSLSGHRGSPSPPQAEARRRGGGSFVERCQELVRSGPDLRRPPTPAPWPSSGLGTPLTPPKMKLNETSF
- 3xMBT/D355N UNC Heavy [2]: 2.90 log base 2
- 3xMBT/D355N UNC Light [2]: 2.73 log base 2

- Relative to UNC0638 UNC Heavy [1]: −0.32 log base 2
- Relative to UNC0638 UNC Light [1]: 0.11 log base 2
- Relative to UNC0638 Average [1]: −0.11 log base 2
B2: NCBP1 (protein, UniProt Q09161 1-790, looked up)
Nuclear cap-binding protein …: MSRRRHSDENDGGQPHKRRKTSDANETEDHLESLICKVGEKSACSLESNLEGLAGVLEADLPNYKSKILRLLCTVARLLPEKLTIYTTLVGLLNARNYNFGGEFVEAMIRQLKESLKANNYNEAVYLVRFLSDLVNCHVIAAPSMVAMFENFVSVTQEEDVPQVRRDWYVYAFLSSLPWVGKELYEKKDAEMDRIFANTESYLKRRQKTHVPMLQVWTADKPHPQEEYLDCLWAQIQKLKKDRWQERHILRPYLAFDSILCEALQHNLPPFTPPPHTEDSVYPMPRVIFRMFDYTDDPEGPVMPGSHSVERFVIEENLHCIIKSHWKERKTCAAQLVSYPGKNKIPLNYHIVEVIFAELFQLPAPPHIDVMYTTLLIELCKLQPGSLPQVLAQATEMLYMRLDTMNTTCVDRFINWFSHHLSNFQFRWSWEDWSDCLSQDPESPKPKFVREVLEKCMRLSYHQRILDIVPPTFSALCPANPTCIYKYGDESSNSLPGHSVALCLAVAFKSKATNDEIFSILKDVPNPNQDDDDDEGFSFNPLKIEVFVQTLLHLAAKSFSHSFSALAKFHEVFKTLAESDEGKLHVLRVMFEVWRNHPQMIAVLVDKMIRTQIVDCAAVANWIFSSELSRDFTRLFVWEILHSTIRKMNKHVLKIQKELEEAKEKLARQHKRRSDDDDRSSDRKDGVLEEQIERLQEKVESAQSEQKNLFLVIFQRFIMILTEHLVRCETDGTSVLTPWYKNCIERLQQIFLQHHQIIQQYMVTLENLLFTAELDPHILAVFQQFCALQA
- 3xMBT/D355N UNC Heavy [2]: 1.27 log base 2
- 3xMBT/D355N UNC Light [2]: 2.23 log base 2

- Relative to UNC0638 UNC Heavy [1]: −0.35 log base 2
- Relative to UNC0638 UNC Light [1]: 0.18 log base 2
- Relative to UNC0638 Average [1]: −0.09 log base 2
B3: SMARCA1 (protein, UniProt P28370 1-1042, looked up)
SWI/SNF-related …: MEQDTAAVAATVAAADATATIVVIEDEQPGPSTSQEEGAAAAATEATAATEKGEKKKEKNVSSFQLKLAAKAPKSEKEMDPEYEEKMKADRAKRFEFLLKQTELFAHFIQPSAQKSPTSPLNMKLGRPRIKKDEKQSLISAGDYRHRRTEQEEDEELLSESRKTSNVCIRFEVSPSYVKGGPLRDYQIRGLNWLISLYENGVNGILADEMGLGKTLQTIALLGYLKHYRNIPGPHMVLVPKSTLHNWMNEFKRWVPSLRVICFVGDKDARAAFIRDEMMPGEWDVCVTSYEMVIKEKSVFKKFHWRYLVIDEAHRIKNEKSKLSEIVREFKSTNRLLLTGTPLQNNLHELWALLNFLLPDVFNSADDFDSWFDTKNCLGDQKLVERLHAVLKPFLLRRIKTDVEKSLPPKKEIKIYLGLSKMQREWYTKILMKDIDVLNSSGKMDKMRLLNILMQLRKCCNHPYLFDGAEPGPPYTTDEHIVSNSGKMVVLDKLLAKLKEQGSRVLIFSQMTRLLDILEDYCMWRGYEYCRLDGQTPHEEREEAIEAFNAPNSSKFIFMLSTRAGGLGINLASADVVILYDSDWNPQVDLQAMDRAHRIGQKKPVRVFRLITDNTVEERIVERAEIKLRLDSIVIQQGRLIDQQSNKLAKEEMLQMIRHGATHVFASKESELTDEDITTILERGEKKTAEMNERLQKMGESSLRNFRMDIEQSLYKFEGEDYREKQKLGMVEWIEPPKRERKANYAVDAYFREALRVSEPKIPKAPRPPKQPNVQDFQFFPPRLFELLEKEILYYRKTIGYKVPRNPDIPNPALAQREEQKKIDGAEPLTPEETEEKEKLLTQGFTNWTKRDFNQFIKANEKYGRDDIDNIAREVEGKSPEEVMEYSAVFWERCNELQDIEKIMAQIERGEARIQRRISIKKALDAKIARYKAPFHQLRIQYGTSKGKNYTEEEDRFLICMLHKMGFDRENVYEELRQCVRNAPQFRFDWFIKSRTAMEFQRRCNTLISLIEKENMEIEERERAEKKKRATKTPMVKFSAFS
- 3xMBT/D355N UNC Heavy [2]: 0.79 log base 2
- 3xMBT/D355N UNC Light [2]: 3.03 log base 2

Source: patent publication US20140274782A1, “AFFINITY REAGENTS AND METHODS FOR DETECTION, PURIFICATION, AND PROTEOMIC ANALYSIS OF METHYLATED PROTEINS” (The Board of Trustees of the Leland Stanford Junior …, priority 2013, published 2014)
